From paper doi:10.1101/2021.05.24.445441 (bioRxiv, 2021)
No end group written: not given here.

Columns and labels:
[1] = molecular target: p75-TM-C257A (human); test: NMR cross-correlated relaxation rates
[2] = molecular target: the molecule itself; test: NMR titration

Row | Molecule | stoichiometry N [1] | binding result [2]
1 | p75-TM-C257A (domain or fragment) | 2 | 
2 | MKKDETPFGVSVAVGLAVFACLFLSTLLLVLNKAGRRNK (domain or fragment, also: 15N-labelled in one titration, unlabelled in the other) [human TrkA-TM] |  | binds
